Here are results for three molecules from patent publication US7655759 (VRIJE UNIVERSITEIT BRUSSEL, dated 2010).

In experiment [1] the target is T1, recombinant C fragment of tetanus neurotoxin (Clostridium tetani, UniProt P04958 865-1315).
T1 construct: domain: C fragment
T1 sequence: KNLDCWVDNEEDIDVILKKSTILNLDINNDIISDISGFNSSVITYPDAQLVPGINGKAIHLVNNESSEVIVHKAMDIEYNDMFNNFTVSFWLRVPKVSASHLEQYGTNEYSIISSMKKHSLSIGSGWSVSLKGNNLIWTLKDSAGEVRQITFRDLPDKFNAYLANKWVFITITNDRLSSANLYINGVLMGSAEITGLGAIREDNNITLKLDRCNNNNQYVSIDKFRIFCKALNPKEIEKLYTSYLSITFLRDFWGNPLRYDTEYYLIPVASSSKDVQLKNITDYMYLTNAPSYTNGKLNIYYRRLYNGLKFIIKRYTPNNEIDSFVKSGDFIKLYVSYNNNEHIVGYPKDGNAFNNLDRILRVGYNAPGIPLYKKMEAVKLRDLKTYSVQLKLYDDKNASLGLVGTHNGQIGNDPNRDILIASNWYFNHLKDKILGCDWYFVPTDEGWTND
The experiment is described as follows: ELISA, bacterial extract. (In an ELISA, binding on a coated surface is turned into a signal by an enzyme label.)

For a further experiment, the target named is T2, Protein A (UniProt P38507 37-477).
T2 construct: also called Protein A-SEPHAROSE
Description: Protein A-Sepharose chromatography.

Another experiment has as its target T3, Hen Egg Lysozyme (hen, UniProt P00698 19-147).
T3 construct: also called HEL
The experiment is described as follows: inhibition ELISA, binding competed with free antigen.

The Ki is the equilibrium dissociation constant of an inhibitor or competing ligand from its target. A higher Ki goes with weaker binding.

B1: camel VHH αTT2 (anti-tetanus toxoid) (VHH)
VHH: EVQLQASGGGSVQAGGSLRLSCTAANYAFDSKTVGWFRQVPGKEREGVAGISSGGSTTAYSDSVKGRYTVSLENAKNTVYLLIDNLQPEDTAIYYCAGVSGWRGRQWLLLAETYRFWGQGTQVTVSS
With B1, the binding result in experiment [1] is reported as “no binding”.

B2: camel VHH α-LYS3 (anti-lysozyme) (VHH)
VHH: DVQLQASGGGSVQAGGSLRLSCAASGYTIGPYCMGWFRQAPGKEREGVAAINMGGGITYYADSVKGRFTISQDNAKNTVYLLMNSLEPEDTAIYYCAADSTIYASYYECGHGLSTGGYGYDSWGQGTQVTVSS
notes: also called LYS3 VHH; pHEN4-αLYS3
As to B2, the binding result in the experiment with Protein A was “no binding”. In addition, in the experiment with Hen Egg Lysozyme, the Ki was roughly 500 nM.

B3: camel VHH α-LYS2 (anti-lysozyme) (VHH)
VHH: EVQLQASGGGSVQAGQSLRLSCATSGATSSSNCMGWFRQAPGKEREGVAVIDTGRGNTAYADSVQGRLTISLDNAKNTLYLQMNSLKPEDTAMYYCAADTSTWYRGYCGTNPNYFSYWGQGTQVTVSS
notes: also called LYS2 VHH; pHEN4-αLYS2
The molecule B3 registered an inhibition constant Ki with Hen Egg Lysozyme of roughly 50 nM.
